Data published in PMC6125358, “Mapping the Interface of a GPCR Dimer: A Structural Model of the A2A Adenosine and D2 Dopamine Receptor Heteromer” (Frontiers in Pharmacology, 2018).

B1: 3xHA-D2R^GFP2 (human D2 dopamine receptor, wild type) [human] / human adenosine receptor fused to Renilla luciferase (A2AR^Rluc) [human] (parent)
chain 1: MPIMGSSVYITVELAIAVLAILGNVLVCWAVWLNSNLQNVTNYFVVSLAAADIAVGVLAIPFAITISTGFCAACHGCLFIACFVLVLTQSSIFSLLAIAIDRYIAIRIPLRYNGLVTGTRAKGIIAICWVLSFAIGLTPMLGWNNCGQPKEGKNHSQGCGEGQVACLFEDVVPMNYMVYFNFFACVLVPLLLMLGVYLRIFLAARRQLKQMESQPLPGERARSTLQKEVHAAKSLAIIVGLFALCWLPLHIINCFTFFCPDCSHAPLWLMYLAIVLSHTNSVVNPFIYAYRIREFRQTFRKIIRSHVLRQQEPFKAAGTSARVLAAHGSDGEQVSLRLNGHPPGVWANGSAPHPERRPNGYALGLVSGGSAQESQGNTGLPDVELLSHELKGVCPEPPGLDDPLAQDGAGVS
chain 2: MDPLNLSWYDDDLERQNWSRPFNGSDGKADRPHYNYYATLLTLLIAVIVFGNVLVCMAVSREKALQTTTNYLIVSLAVADLLVATLVMPWVVYLEVVGEWKFSRIHCDIFVTLDVMMCTASILNLCAISIDRYTAVAMPMLYNTRYSSKRRVTVMISIVWVLSFTISCPLLFGLNNADQNECIIANPAFVVYSSIVSFYVPFIVTLLVYIKIYIVLRRRRKRVNTKRSSRAFRAHLRAPLKGNCTHPEDMKLCTVIMKSNGSFPVNRRRVEAARRAQELEMEMLSSTSPPERTRYSPIPPSHHQLTLPDPSHHGLHSTPDSPAKPEKNGHAKDHPKIAKIFEIQTMPNGKTRTSLKTMSRRKLSQQKEKKATQMLAIVLGVFIICWLPFFITHILNIHCDCNIPPVLYSAFTWLGYVNSAVNPIIYTTFNIEFRKAFLKILHC

Variants of: B1
Experiment: BRET2 saturation assay
Details: with human A2A adenosine receptor fused to Renilla luciferase (A2AR^Rluc) [human]; height of the fitted saturation curve read at x = 6 AU (GFP2-GFP2_0)/Rluc; co-expressed in cells; DeepBlueC substrate, 10 min incubation; read off a plot

**Q.** chain 2 L207A K211A was tested. Which response (netBRET2 ratio) did it give?
**A.** 0.048

**Q.** For chain 2 Y192A, which response (netBRET2 ratio) is on record?
**A.** 0.056
